Measured values: publication PMC3358306 (PLoS ONE, 2012)
Several values for one entry are separate records, joined by “and”; a condition that tells them apart may be missing. Equal values may be shown once.

Assays:
[1] = biological target: the molecule itself; test: SEC; analytical Superdex 200, sample diluted in buffer with 2 mM adenosine; 50 mM Tris pH 8.0, 200 mM NaCl, 0.2% β-mercaptoethanol; 3 µg/µl protein
[2] = biological target: the molecule itself; test: SEC; analytical Superdex 200, sample diluted in buffer with 2 mM ATP; 50 mM Tris pH 8.0, 200 mM NaCl, 0.2% β-mercaptoethanol; 3 µg/µl protein
[3] = biological target: the molecule itself; test: SEC; analytical Superdex 200, no ligand; 50 mM Tris pH 8.0, 200 mM NaCl, 0.2% β-mercaptoethanol; 3 µg/µl protein; size by calibration proteins
AUC = biological target: the molecule itself; test: AUC

B1: human Rio1 kinase, residues 106 to 494, unphosphorylated (domain or fragment, UniProt Q9BRS2 106-494, looked up)
chain: STPADKVLRKFENKINLDKLNVTDSVINKVTEKSRQKEADMYRIKDKADRATVEQVLDPRTRMILFKMLTRGIITEINGCISTGKEANVYHASTANGESRAIKIYKTSILVFKDRDKYVSGEFRFRHGYCKGNPRKMVKTWAEKEMRNLIRLNTAEIPCPEPIMLRSHVLVMSFIGKDDMPAPLLKNVQLSESKARELYLQVIQYMRRMYQDARLVHADLSEFNMLYHGGGVYIIDVSQSVEHDHPHALEFLRKDCANVNDFFMRHSVAVMTVRELFEFVTDPSITHENMDAYLSKAMEIASQRTKEERSSQDHVDEEVFKRAYIPRTLNEVKNYERDMDIIMKLKEEDMAMNAQQDNILYQTVTGLKKDLSGVQKVPALLENQVEERT
notes: Rio1 kinase, human, residues 106 to 494; monomer MW 45.1 kDa as printed; also called hRio1; unphosphorylated hRio1; source: size exclusion; purified in the presence of 1 mM adenosine to prevent autophosphorylation
[1]
  stoichiometry N: 4
[2]
  stoichiometry N: 2

B2: autophosphorylated human Rio1 kinase, residues 106 to 494 (domain or fragment, UniProt Q9BRS2 106-494, looked up)
chain: STPADKVLRKFENKINLDKLNVTDSVINKVTEKSRQKEADMYRIKDKADRATVEQVLDPRTRMILFKMLTRGIITEINGCISTGKEANVYHASTANGESRAIKIYKTSILVFKDRDKYVSGEFRFRHGYCKGNPRKMVKTWAEKEMRNLIRLNTAEIPCPEPIMLRSHVLVMSFIGKDDMPAPLLKNVQLSESKARELYLQVIQYMRRMYQDARLVHADLSEFNMLYHGGGVYIIDVSQSVEHDHPHALEFLRKDCANVNDFFMRHSVAVMTVRELFEFVTDPSITHENMDAYLSKAMEIASQRTKEERSSQDHVDEEVFKRAYIPRTLNEVKNYERDMDIIMKLKEEDMAMNAQQDNILYQTVTGLKKDLSGVQKVPALLENQVEERT
modifications: autophosphorylated; site not given
notes: Rio1 kinase, human, residues 106 to 494, autophosphorylated; Same construct as m4, autophosphorylated in vitro; also called phosphorylated hRio1; autophosphorylated hRio1; source: purified hRio1 incubated at 25°C for 1 hr in 50 mM Tris pH 8.0, 200 mM NaCl, 2 mM MgCl2 and 0.2% β-mercaptoethanol
[3]
  stoichiometry N: 2

B3: Archaeoglobus fulgidus Rio1 kinase Y200D mutant (enzyme, UniProt O28471 1-258, looked up)
chain: MKDLKKIESYLDKLRIKEKDGEERKIYAEVLDGRTLKTLYKLSAKGYITAMGGVISTGKEANVFYADGVFDGKPVAMAVKIYRIETSEFDKMDEYLYGDERFDMRRISPKEKVFIWTEKEFRNLERAKEAGVSVPQPYTYMKNVLLMEFIGEDELPAPTLVELGRELKELDVEGIFNDVVENVKRLYQEAELVHADLSEDNIMYIDKVYFIDMGQAVTLRHPMAESYLERDVRNIIRFFSKYGVKADFEEMLKEVKGE
notes: Rio1 kinase of Archaeoglobus fulgidus, full length, with Tyr 200 mutated to Asp; also called afRio1 Y200D; afRio1Y200D
AUC
  stoichiometry N: 4 and 3
